Assay results taken from US20180030151A1 (MOGAM INSTITUTE FOR BIOMEDICAL RESEARCH, published 2018).

The binders below were run against T1, recombinant human TFPI (tissue factor pathway inhibitor) (human, UniProt P10646 29-304) (assay: ELISA of phage-library Fab supernatants on TFPI-coated plate).
T1 construct: Biotin-conjugated in the yeast FACS; also called hTFPI; TFPI antigen
Experimental: Single colonies were collected from the finally amplified library, and then cultured in 1.5 mL of SB/carbenicillin at 37° C. at 220 rpm until an OD600 of about 0.8-1.0 was reached, followed by incubation with 1 mM IPTG at 30° C. at 200 rpm for 12 hours. Next, the cells were centrifuged at 5500 rpm for 5 minutes, and the supernatant was added to a TFPI antigen-coated ELISA plate, incubated at room temperature for 2 hours, and then washed four times with PBST (1×PBS, 0.05% tween 20). Next, a 1:5000 dilution of an HRP/anti-hFab-HRP conjugate (CAT. No. A0293, Sigma) with 1% BSA/1×PBS was added to the cells, after which the cells were incubated at room temperature for 1 hour and washed four times with PBST (1×PBS, 0.05% tween 20). Then, the cells treated with a TMB solution for 5-10 minutes, and a TMB stop solution was added to the cells. Next, the absorbance at a wavelength of 450 nm was measured using the TECAN sunrise, and clones having high O. D values were selected as individual clones.

Row | Binder | binding result
1 | clone A52 (antibody, V domains shown, Fab from phage library at selection; human IgG4/kappa IgG as purified) VH: EVQLVESGGGLVKPGGSLRLSCAASGFTFSSYAMNWVRQAPGKGLEWVSTITTGGSHTYYADSVDGRFTISRDNAKNSLYLQMNSLRAEDTAVYYCARQDGNFLMDYWGQGTLVTVSS VL: DVVMTQTPLSLPVTLGQPASISCKSSQSLLDIDGKTYLNWLQQRPGQSPKRLIYLVSKLDSGVPDRFTGSGSGTDFTLKISRVEAEDVGVYYCWQGTHFPFTFGQGTKVEIKR | binds
2 | clone A71 (antibody, V domains shown, Fab from phage library at selection; human IgG4/kappa IgG as purified) VH: EVQLVESGGGLVKPGGSLRLSCAASGFTFSSYAMNWVRQAPGKGLEWVSTITTGGSYTYYADSVHGRFTISRDNAKNSLYLQMNSLRAEDTAVYYCARQDGNFLMDYWGQGTLVTVSS VL: DVVMTQTPLSLPVTLGQPASISCKSSQSLLDTDGKTYLNWLQQRPGQSPKRLIYLVSKLDSGVPDRFTGSGSGTDFTLKISRVEAEDVGVYYCWQGTHFPFTFGQGTKVEIKR | binds
3 | clone A74 (antibody, V domains shown, Fab from phage library at selection; human IgG4/kappa IgG as purified) VH: EVQLVESGGGLVKPGGSLRLSCAASGFTFSSYAMHWVRQAPGKGLEWVSTITTGGSYTYYADSVQGRFTISRDNAKNSLYLQMNSLRAEDTAVYYCARQDGNFLMDYWGQGTLVTVSS VL: DVVMTQTPLSLPVTLGQPASISCKSSQSLLDIDGKTYLNWLQQRPGQSPKRLIYLVSKLDSGVPDRFTGSGSGTDFTLKISRVEAEDVGVYYCWQGTHFPFTFGQGTKVEIKR | binds
